Experimental data taken from article PMC9479004, “Cloning and characterization of a novel functional organic anion transporting polypeptide 3A1 isoform highly expressed in the human brain and testis” (Frontiers in Pharmacology, 2022).

substrate: CCN(CC)c1ccc2cc(/C=C/c3cc[n+](CCCN=[N+]=[N-])cc3S(=O)(=O)[O-])c(=O)oc2c1; assay: fluorescent dye uptake by flow cytometry, HEK-293 overexpressing cells; type: cell-based, Homo sapiens; details: pH 7.4, 37 °C, 10 min, 5-400 µM ACPS, mock-subtracted

Row | Protein | Km [µM]
1 | OATP3A1_V1 (Homo sapiens; E294D) (protein, full-length ORF from brain RNA, 710 residues, E294D polymorphism (rs1517618), untagged, lentiviral overexpression in HEK-293) MQGKKPGGSSGGGRSGELQGDEAQRNKKKKKKVSCFSNIKIFLVSECALMLAQGTVGAYLVSVLTTLERRFNLQSADVGVIASSFEIGNLALILFVSYFGARGHRPRLIGCGGIVMALGALLSALPEFLTHQYKYEAGEIRWGAEGRDVCAANGSGGDEGPDPDLICRNRTATNMMYLLLIGAQVLLGIGATPVQPLGVSYIDDHVRRKDSSLYIGILFTMLVFGPACGFILGSFCTKIYVDAVFIDTSNLDITPDDPRWIGAWWGGFLLCGALLFFSSLLMFGFPQSLPPHSDPAMESEQAMLSEREYERPKPSNGVLRHPLEPDSSASCFQQLRVIPKVTKHLLSNPVFTCIILAACMEIAVVAGFAAFLGKYLEQQFNLTTSSANQLLGMTAIPCACLGIFLGGLLVKKLSLSALGAIRMAMLVNLVSTACYVSFLFLGCDTGPVAGVTVPYGNSTAPGSALDPYSPCNNNCECQTDSFTPVCGADGITYLSACFAGCNSTNLTGCACLTTVPAENATVVPGKCPSPGCQEAFLTFLCVMCICSLIGAMAQTPSVIILIRTVSPELKSYALGVLFLLLRLLGFIPPPLIFGAGIDSTCLFWSTFCGEQGACVLYDNVVYRYLYVSIAIALKSFAFILYTTTWQCLRKNYKRYIKNHEGGLSTSEFFASTLTLDNLGRDPVPANQTHRTKFIYNLEDHEWCENMESVL | 37.7
2 | OATP3A1_V2 (Homo sapiens; E294D) (protein, full-length ORF from brain RNA, 692 residues, E294D polymorphism (rs1517618), untagged, lentiviral overexpression in HEK-293) MQGKKPGGSSGGGRSGELQGDEAQRNKKKKKKVSCFSNIKIFLVSECALMLAQGTVGAYLVSVLTTLERRFNLQSADVGVIASSFEIGNLALILFVSYFGARGHRPRLIGCGGIVMALGALLSALPEFLTHQYKYEAGEIRWGAEGRDVCAANGSGGDEGPDPDLICRNRTATNMMYLLLIGAQVLLGIGATPVQPLGVSYIDDHVRRKDSSLYIGILFTMLVFGPACGFILGSFCTKIYVDAVFIDTSNLDITPDDPRWIGAWWGGFLLCGALLFFSSLLMFGFPQSLPPHSDPAMESEQAMLSEREYERPKPSNGVLRHPLEPDSSASCFQQLRVIPKVTKHLLSNPVFTCIILAACMEIAVVAGFAAFLGKYLEQQFNLTTSSANQLLGMTAIPCACLGIFLGGLLVKKLSLSALGAIRMAMLVNLVSTACYVSFLFLGCDTGPVAGVTVPYGNSTAPGSALDPYSPCNNNCECQTDSFTPVCGADGITYLSACFAGCNSTNLTGCACLTTVPAENATVVPGKCPSPGCQEAFLTFLCVMCICSLIGAMAQTPSVIILIRTVSPELKSYALGVLFLLLRLLGFIPPPLIFGAGIDSTCLFWSTFCGEQGACVLYDNVVYRYLYVSIAIALKSFAFILYTTTWQCLRKNYKRYIKNHEGGLSTSTEYQDIETEKTCPESHSPSEDSFVRS | 31.7
3 | OATP3A1_V3 (Homo sapiens; E294D) (protein, full-length ORF from brain RNA, 697 residues, E294D polymorphism (rs1517618), untagged, lentiviral overexpression in HEK-293; C-terminal peptide (C)VLEATCAAGPQSLL) MQGKKPGGSSGGGRSGELQGDEAQRNKKKKKKVSCFSNIKIFLVSECALMLAQGTVGAYLVSVLTTLERRFNLQSADVGVIASSFEIGNLALILFVSYFGARGHRPRLIGCGGIVMALGALLSALPEFLTHQYKYEAGEIRWGAEGRDVCAANGSGGDEGPDPDLICRNRTATNMMYLLLIGAQVLLGIGATPVQPLGVSYIDDHVRRKDSSLYIGILFTMLVFGPACGFILGSFCTKIYVDAVFIDTSNLDITPDDPRWIGAWWGGFLLCGALLFFSSLLMFGFPQSLPPHSDPAMESEQAMLSEREYERPKPSNGVLRHPLEPDSSASCFQQLRVIPKVTKHLLSNPVFTCIILAACMEIAVVAGFAAFLGKYLEQQFNLTTSSANQLLGMTAIPCACLGIFLGGLLVKKLSLSALGAIRMAMLVNLVSTACYVSFLFLGCDTGPVAGVTVPYGNSTAPGSALDPYSPCNNNCECQTDSFTPVCGADGITYLSACFAGCNSTNLTGCACLTTVPAENATVVPGKCPSPGCQEAFLTFLCVMCICSLIGAMAQTPSVIILIRTVSPELKSYALGVLFLLLRLLGFIPPPLIFGAGIDSTCLFWSTFCGEQGACVLYDNVVYRYLYVSIAIALKSFAFILYTTTWQCLRKNYKRYIKNHEGGLSTTSEPDRIQNKERMTSCGRVLEATCAAGPQSLL | 35
